Results on four molecules are retold here after US20210037856A1, “Ruminant Feed Composition Comprising A Muramidase” (Novozymes A/S, priority 2018, published 2021).

This experiment deals with rumen fluid. The experiment can be described thus: in vitro ruminal fermentation, 22 muramidases, 12 h (Example 4). On the set-up: species or system cow; DMd: unit not given here. Conditions: muramidase 0.20 mg/40 ml; for Acetate / Butyrate / Propionate: VFA production after 12 h; for DMd: dry matter digestibility after 12 h of ruminal fermentation in vitro; for Total VFA: sum of VFA after 12 h; for Carbon in VFA: summed carbon in VFA after 12 h. On the procedure: The trial was performed by Alimetrics (Alimetrics Ltd, Koskelontie 19B, FIN-02920 Espoo, Finland) using 120 mL serum bottles as fermentation vessels. The fermentation preparation and procedure is presented in Kettunen et al., (Kettunen H., J. Vuorenmaa, D. Gaffney and J. Apajalahti (2016): Yeast hydrolysate product enhances ruminal fermentation in vitro. J. App. Anim. Nutr., Vol. 4; e1; page 1 of 7). In short, the method is as follows: All bottles were initially filled with 1 g of feed DM composed from corn silage, barley meal, soybean meal, at the amounts of 0.5, 0.4, and 0.1 g DM, respectively. Subsequently, the bottles were flushed with CO2 passed through a hot copper catalyst for O2 scavenging and sealed with thick butyl rubber stopper. Anaerobic, reduced and temperature adjusted (+38° C.) artificial saliva buffer solution (Modified from Agriculture Handbook No. 379, (USDA, Washington, D.C., 1975), volume of 37.65 ml), freshly strained rumen fluid (5% inoculum; volume of 2 ml), and test compounds (volume of 0.35 ml) was introduced into the fermentation vessels under the oxygen-free CO2 flow. Following rumen fluid was collected from a ruminal cannulated cow. Rumen fluid was pumped directly from the rumen into a preheated thermos and immediately closed, and transported to Alimetrics laboratory. The rumen fluid was used for inoculation within 2 hours of harvest. To ensure that both liquid and particle associated ruminal microbes were present in the inoculum both fractions were obtained. Liquid and solid fractions were strained through a metal mesh (grid size 3×3 mm) under anaerobic conditions prior to buffer dilution.
Following inoculation with rumen fluid, buffer and test solution, the vessels were sealed with the butyl rubber septum's. All fermentation vessels were inoculated in random order to prevent the possible block effects. Inoculation time for each fermentation vessel was registered and was taken into account op on each sampling to ensure that duration of the fermentation was the same for each sample. The fermentation was continued for 12 h in a gyratory shaker at +38° C. Fermentation gas produced was measured and relived by collection of the fermentation gas in syringes at time 3, 6, 9, and 12 h. Feed residues were measured after 12 h fermentation.
The trial design was a dosage response, complete randomized design with 27 treatments using 145 fermentation vessels according to table 5. […] Negative control was supplemented with the same buffer solution that was used for diluting the enzymes to reach the same liquid volume as the supplemented fermentation vessels. The ionophore Monensin (Monensin sodium salt, 90-95% TLC (Sigma Aldrich; Product code: M5273-1G)) was chosen as a positive control because it is a ruminants feed additive that affects volatile fatty acids (VFA) production.
Liquid Samples Obtained at 12 h were Analyzed for the Concentration of VFA (Acetate, Propionate, butyrate, and valerate) by GC-FID using a glass column packed with 80/120 carbopack B-DA/4% Carbowax stationary and helium as a carrier gas (Kettunen H., J. Vuorenmaa, T. Rinttilä, H. Grönberg, E. Valkonen and J. Apajalahti (2015): Natural resin acid-enriched composition as a modulator of intestinal microbiota and performance enhancer in broiler chicken. J. App. Anim. Nutr., Vol. 3; e2; page 1 of 9).
Digestibility of dry matter was quantified by determination of dry matter in the original feed matrix and in all fermentation vessels after 12 h of fermentation. Feed residues from the fermentation vessels were obtained by filtration tared sintered glass filters, washed with water and dried at 105° C. for 12 hours. Finally, the glass filters are weighed for the residual feed dry matter.
Dry matter digestibility (DMd) was calculated at the ratio between feed residues after end fermentation and the dry matter fed. […]

B1: T: mature muramidase polypeptide from Chaetomium sp., novel MUR polypeptide; T in Example 4 (protein)
chain: YHIKGSIVNCRAGPGTSHAVKKTYAKGQNVQISCQTTGNIIHGNNIWDLTQDGCYVADYYVKTGTDGFVTDKCSSSGNSGVSGTSTSSVGGAAGPMKDDYPYKSNCEGTDPWLYFKCQCTSFVAWRINERLGIKFHNQYKGVNWGDANTWDDAAKRTGVTVNKTPKPGCVAQTDKGTWGHVAWVAAVGDETVTIEEYNYGGKERYGTRTVPKGEFDYIHVKN
modifications: Chaetomium sp
With B1, the Acetate is 53.6 mmol/L, the Butyrate came out at 7.8 mmol/L, the Propionate came to 45.1 mmol/L and the DMd is given as 0.57. The “Total VFA” value is 107 mmol/L and the “Carbon in VFA” value was 277 mmol/L.

B2: N: mature muramidase polypeptide from Ovatospora brasiliensis, GH25; N in Example 4 (protein, listed as Ovatospora brasiliensis)
chain: FDISNWQPAGTVDFAAAYSSGARFVIIKATEGTSYIDPSFSSHYTKATNAGFIRGGYHFAHPGETTGAAEADYFIAHGGGWSNDGITLPGMLDLESENKGQCWGLSTSAMVSWIKSFSDRYKSRTGVYPLIYTNPSWWSACTGNSNAFVNTNPLVLARYASAPGTIPGGWPYQTIWQNSDSYAYGGDSDIFNGSLDRLKALAKGS
In the case of B2, the Acetate is 49.3 mmol/L, the Butyrate stood at 7.2 mmol/L, the Propionate turned out to be 40.8 mmol/L and the DMd worked out at 0.59. Moreover, the “Total VFA” value came out at 98 mmol/L and the “Carbon in VFA” value worked out at 253 mmol/L.

B3: U: mature muramidase polypeptide from Zopfiella Sp., novel MUR polypeptide; U in Example 4 (protein)
chain: YPIKGDTVNCRSGPGTSFAVKKTYAKGKDIKITCQTTGTSVNGNNIWDKTSDGCYVADYYVKTGKDGFVTDKCDASSVPKPPATKIPGPVTNDYPYKSSCGGVDPWNYYKCQCTSFVAWRVNKRLGKKFHNRYKGHAWGNANQWDEAAKQSGVKVNSTPKPGCIAQTNAGSYGHVAWVTAVGKDTVTIEEYNWNKKLGYGTRTVAKSKFNYIHLEP
modifications: Zopfiella sp
For B3, the Acetate came out at 49.1 mmol/L, the Butyrate is 7.1 mmol/L, the Propionate is 40.5 mmol/L and the DMd is reported as 0.60. Besides, the “Total VFA” value is 97 mmol/L and the “Carbon in VFA” value is on record as 251 mmol/L.

B4: S: mature muramidase polypeptide from Aspergffius sp., novel MUR polypeptide; S in Example 4 (protein, listed as Aspergillus sp.)
chain: YPVKADVHCRSGPGTSYSIVKTYSTGTQISVSCQAAGTDVDGDQLWDKTSDGCYVSDYYVSTGSSNYVTSHCPTEYAIKTDVNCRSGPGTNYGIVKTYNQGVMVSLNCQASGTDVDGDSLWDKTSDGCYVSDYYVATGSSSYVTSACSGSSSSGGGGSSSSGNLPSLDSTQSAHARAIIGEAKSQNVGRQGCLAGIATALVESSMLMYANSNVAASLSYPHDAVGSDYDSVGLFQQRVSIYTNLAADMDAAQSAGQFFDEMKKVSGWETMNVGDLCQEVQRSAYPDRYAGEVSTAESICSAGGL
In turn, B4 came in with an Acetate of 49.4 mmol/L, a Butyrate of 7.1 mmol/L, a Propionate of 41.2 mmol/L and a DMd of 0.58. Further, the “Total VFA” value was found to be 98 mmol/L and the “Carbon in VFA” value was determined as 254 mmol/L.
